In patent US7186459B2, “Liposome coated with polyhydroxyalkanoate and production method thereof” (priority 2001, dated 2007):

Test system: PHA synthesizing enzyme
Test: Activity of purified PHA synthesizing enzyme (released CoA coloured with 5,5'-dithiobis-(2-nitrobenzoic acid), absorbance at 412 nm)
Assay type: biochemical, Pseudomonas cichorii YN2
Conditions: for Activity: 1 U = amount of enzyme releasing 1 μmol CoA per minute, substrate 3-hydroxyoctanoyl CoA, 30° C.; for Specific Activity: protein by Micro BCA
Source text: A various kinds of reported methods may be used for measuring activity of the PHA synthesizing enzyme, and for example, the activity may be measured by the following method in which as a measurement principle, CoA released in the process through which 3-hydroxyacyl CoA is polymerized under the catalytic action of the PHA synthesizing enzyme to form PHA is colored with 5,5′-dithiobis-(2-nitrobenzoic acid) to carry out measurements. Reagent 1: bovine serum albumin (manufactured by Sigma Co., Ltd.) is dissolved in a 0.1 M Tris hydrochloric buffer (pH 8.0) in the concentration of 3.0 mg/ml, Reagent 2: 3-hydroxyoctanoyl CoA is dissolved in a 0.1 M Tris hydrochloric buffer (pH 8.0) in the concentration of 3.0 mM, Reagent 3: trichloroacetic acid is dissolved in a 0.1 M Tris hydrochloric buffer (pH 8.0) in the concentration of 10 mg/ml, and Reagent 4: 5,5′-dithiobis-(2-nitrobenzoic acid) is dissolved in a 0.1 M Tris hydrochloric buffer (pH 8.0) in the concentration of 2.0 mM. First reaction (PHA synthesis reaction): 100 μl of Reagent 1 is added in 100 μl of sample (enzyme) solution and mixed together, and is pre-incubated at 30° C. for a minute. 100 μl of Reagent 2 is added thereto and mixed together, and is incubated at 30° C. for 1 to 30 minutes, followed by adding thereto Reagent 3 to stop the reaction. Second reaction (reaction of coloring free CoA): the first reaction solution of which reaction has been stopped is subjected to centrifugation (15,000×g, 10 minutes), and 500 μl of Reagent 4 is added in 500 μl of supernatant liquid of this solution, and is incubated at 30° C. for 10 minutes, followed by measuring an absorbance at 412 nm. Calculation of enzyme activity: the amount of enzyme for releasing 1 μmol of CoA per minute is defined as one unit (U).
The activity of each purified enzyme was measured by the aforesaid method. Also, the concentrations of proteins in the sample were measured by the Micro BCA protein quantification reagent kit (Pierce Chemical Co., Ltd.).

B1: YN2-C2: Purified PHA synthase derived from Pseudomonas cichorii YN2, from plasmid pYN2-C2 (SEQ ID NO: 4), 61.5 kDa (protein)
chain: MRDKPARESLPTPAKFINAQSAITGLRGRDLVSTLRSVAAHGLRHPVHTARHALKLGGQLGRVLLGDTLHPTNPQDRRFDDPAWSLNPFYRRSLQAYLSWQKQVKSWIDESNMSPDDRARAHFAFALLNDAVSPSNSLLNPLAIKEIFNSGGNSLVRGIGHLVDDLLHNDGLPRQVTRHAFEVGKTVATTTGAVVFRNELLELIQYKPMSEKQYSKPLLVVPPQINKYYIFDLSPHNSFVQFALKNGLQTFVISWRNPDVRHREWGLSTYVEAVEEAMNVCRAITGAREVNLMGACAGGLTIAALQGHLQAKRQLRRVSSATYLVSLLDSQLDSPATLFADEQTLEAAKRRSYQKGVLEGRDMAKVFAWMRPNDLIWSYFVNNYLMGKEPPAFDILYWNNDNTRLPAALHGDLLDFFKHNPLSHPGGLEVCGTPIDLQKVTVDSFSVAGINDHITPWDAVYRSTLLLGGERRFVLANSGHVQSILNPPNNPKANYLEGAKLSSDPRAWYYDAKPVDGSWWTQWLGWIQERSGAQKETHMALGNQNYPPMEAAPGTYVRVR
modifications: Pseudomonas cichorii YN2 ; FERM BP-7375
With B1 the Activity was 1.5 U/mL and the “Specific Activity” value was 3.6 U/mg Protein.

B2: YN2-C1: Purified PHA synthase derived from Pseudomonas cichorii YN2, from plasmid pYN2-C1 (SEQ ID NO: 2), 60.8 kDa (protein)
chain: MSNKSNDELKYQASENTLGLNPVVGLRGKDLLASARMVLRQAIKQPVHSVKHVAHFGLELKNVLLGKSGLQPTSDDRRFADPAWSQNPLYKRYLQTYLAWRKELHDWIDESNLAPKDVARGHFVINLMTEAMAPTNTAANPAAVKRFFETGGKSLLDGLSHLAKDLVHNGGMPSQVNMGAFEVGKSLGVTEGAVVFRNDVLELIQYKPTTEQVYERPLLVVPPQINKFYVFDLSPDKSLARFCLRNNVQTFIVSWRNPTKEQREWGLSTYIEALKEAVDVVTAITGSKDVNMLGACSGGITCTALLGHYAAIGENKVNALTLLVSVLDTTLDSDVALFVNEQTLEAAKRHSYQAGVLEGRDMAKVFAWMRPNDLIWNYWVNNYLLGNEPPVFDILFWNNDTTRLPAAFHGDLIELFKNNPLIRPNALEVCGTPIDLKQVTADIFSLAGTNDHITPWKSCYKSAQLFGGNVEFVLSSSGHIQSILNPPGNPKSRYMTSTEVAENADEWQANATKHTDSWWLHWQAWQAQRSGELKKSPTKLGSKAYPAGEAAPGTYVHER
modifications: Pseudomonas cichorii YN2 ; FERM BP-7375
B2 was tested, and the Activity was 2.1 U/mL and the “Specific Activity” value was 4.1 U/mg Protein.
